Assay results taken from the supplement of paper PMC10724198.
± gives the standard deviation of the averaged measurements.

Experiments:
Saccharomyces cerevisiae [1] = experiment: protein stability index of tFT-peptide fusion (C-terminal peptide) (PSI (0-1 scale)); higher = more stable (slower turnover); settings: genetic background: wild type; temperature: 30 C
Saccharomyces cerevisiae [2] = experiment: as above
Protocol: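 MPS profiling in S. cerevisiae of the tFT-X12 degron library: putative degron peptides plus stable controls, 12 aa, fused to the C-terminus of a sfGFP-mCherry timer. Cells are FACS-sorted into 8 mCherry/sfGFP bins and deep-sequenced. PSI runs from 0 (unstable) to 1 (stable). Backgrounds are wild type, das1Δ and doa10Δ at 30 °C, and wild type, das1Δ, cdc34-1 and cdc53-1 at 37 °C; 2-3 technical replicates each.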

[3] = genetic background: cdc34-1, temperature: 37 C
[4] = genetic background: cdc53-1, temperature: 37 C
[5] = genetic background: das1 deletion, temperature: 30 C
[6] = genetic background: das1 deletion, temperature: 37 C
[7] = genetic background: doa10 deletion, temperature: 30 C
[8] = genetic background: wild type, temperature: 30 C
[9] = genetic background: wild type, temperature: 37 C
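Further: PSI is a weighted mean of sequencing reads over stability bins, variants kept only with over 10 reads, mCherry proximal and sfGFP distal, peptide attached via GGGS linker.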

| Sequence | protein stability index (Saccharomyces cerevisiae [1]) | protein stability index (Saccharomyces cerevisiae [2]; [3]) | protein stability index (Saccharomyces cerevisiae [2]; [4]) | protein stability index (Saccharomyces cerevisiae [2]; [5]) | protein stability index (Saccharomyces cerevisiae [2]; [6]) | protein stability index (Saccharomyces cerevisiae [2]; [7]) | protein stability index (Saccharomyces cerevisiae [2]; [8]) | protein stability index (Saccharomyces cerevisiae [2]; [9]) |
| --- | --- | --- | --- | --- | --- | --- | --- | --- |
| RFHTFVFCLLCL | 0.328 ± 0.06 | 0.407 ± 0.062 | 0.438 ± 0.018 | 0.432 ± 0.02 | 0.516 ± 0.026 | 0.2796 ± 0.00049 | 0.277 ± 0.015 | 0.386 ± 0.015 |
| RFLFYSFPIHTL | 0.128 ± 0.0043 | 0.442 ± 0.061 | 0.6164 ± 0.0028 | 0.572 ± 0.039 | 0.67 ± 0.043 | 0.0683 ± 0.0092 | 0.0745 ± 0.019 | 0.105 ± 0.033 |
| RFVLVFLVSLII | 0.435 ± 0.035 | 0.376 ± 0.039 | 0.501 ± 0.0079 | 0.399 ± 0.029 | 0.541 ± 0.042 | 0.364 ± 0.016 | 0.397 ± 0.016 | 0.48 ± 0.019 |
| RGLANLIVIVSS | 0.374 ± 0.013 | 0.572 ± 0.04 | 0.602 ± 0.0069 | 0.397 ± 0.022 | 0.603 ± 0.015 | 0.186 ± 0.012 | 0.228 ± 0.027 | 0.392 ± 0.011 |
| RGSLYLILVLIG | 0.269 ± 0.026 | 0.194 ± 0.0058 | 0.349 ± 0.087 | 0.215 ± 0.024 | 0.4035 ± 0.00092 | 0.118 ± 0.033 | 0.163 ± 0.03 | 0.268 ± 0.021 |
| RHTVFFCQLLLV | 0.238 ± 0.003 | 0.291 ± 0.0074 | 0.368 ± 0.0077 | 0.307 ± 0.012 | 0.43923 ± 3.7e-05 | 0.175 ± 0.024 | 0.185 ± 0.026 | 0.277 ± 0.046 |
| RKNSQKILKLSG | 0.502 ± 0.15 | 0.6945 ± 0.0068 | 0.7724 ± 0.0073 | 0.64 ± 0.042 | 0.739 ± 0.024 | 0.256 ± 0.013 | 0.317 ± 0.019 | 0.576 ± 0.029 |
| RKQLSCIMIWCK | 0.298 ± 0.011 | 0.361 ± 0.013 | 0.405 ± 0.012 | 0.204 ± 0.027 | 0.431 ± 0.0082 | 0.188 ± 0.0052 | 0.204 ± 0.015 | 0.40377 ± 0.00039 |
| RLFLLIECSSGF | 0.395 ± 0.045 | 0.451 ± 0.005 | 0.491 ± 0.0068 | 0.31 ± 0.046 | 0.493 ± 0.024 | 0.271 ± 0.0039 | 0.293 ± 0.035 | 0.508 ± 0.019 |
| RLGSLVPLAKQL | 0.444 ± 0.059 | 0.643 ± 0.11 | 0.745 ± 0.03 | 0.6729 ± 0.0062 | 0.737 ± 0.023 | 0.319 ± 0.0077 | 0.289 ± 0.023 | 0.413 ± 0.04 |
| RLILAIVVSGGL | 0.389 ± 0.0071 | 0.4098 ± 0.0018 | 0.425 ± 0.033 | 0.295 ± 0.034 | 0.495 ± 0.0071 | 0.252 ± 0.015 | 0.305 ± 0.022 | 0.457 ± 0.03 |
| RLVGVRWEVCNL | 0.744 ± 0.015 | 0.91 ± 0.041 | 0.902 ± 0.024 | 0.78 ± 0.041 | 0.86371 ± 0.00039 | 0.771 ± 0.022 | 0.772 ± 0.014 | 0.863 ± 0.019 |
| RNNLHKKIRRGY | 0.413 ± 0.042 | 0.681 ± 0.046 | 0.752 ± 0.0082 | 0.661 ± 0.043 | 0.745 ± 0.033 | 0.184 ± 0.028 | 0.251 ± 0.037 | 0.458 ± 0.013 |
| RRLRPQTVAFLS | 0.231 ± 0.04 | 0.593 ± 0.012 | 0.717 ± 0.03 | 0.676 ± 0.021 | 0.704 ± 0.028 | 0.159 ± 0.0046 | 0.176 ± 0.025 | 0.278 ± 0.0083 |
| RRVLVVPCIWHM | 0.327 ± 0.0065 | 0.653 ± 0.031 | 0.73 ± 0.011 | 0.604 ± 0.015 | 0.673 ± 0.048 | 0.174 ± 0.026 | 0.223 ± 0.022 | 0.416 ± 0.022 |
| RSGWWQWGRPGT | 0.752 ± 0.049 | 0.698 ± 0.031 | 0.7525 ± 0.0031 | 0.661 ± 0.033 | 0.7712 ± 0.0041 | 0.692 ± 0.034 | 0.691 ± 0.03 | 0.734 ± 0.025 |
| RSIAFLLGQFLS | 0.467 ± 0.013 | 0.6679 ± 0.0052 | 0.745 ± 0.016 | 0.68 ± 0.027 | 0.74305 ± 0.00053 | 0.372 ± 0.019 | 0.395 ± 0.047 | 0.637 ± 0.016 |
| RSKLGVLVILWF | 0.353 ± 0.037 | 0.288 ± 0.02 | 0.391 ± 0.011 | 0.293 ± 0.031 | 0.466 ± 0.012 | 0.243 ± 0.016 | 0.273 ± 0.025 | 0.448 ± 0.0055 |
| RSYAYIIVATVA | 0.274 ± 0.023 | 0.153 ± 0.021 | 0.197 ± 0.0038 | 0.182 ± 0.026 | 0.284 ± 0.014 | 0.14 ± 0.0081 | 0.178 ± 0.025 | 0.214 ± 0.024 |
| RTALSSPRPALL | 0.7799 ± 0.006 | 0.6896 ± 0.0052 | 0.7635 ± 0.0053 | 0.701 ± 0.017 | 0.75 ± 0.0094 | 0.7131 ± 0.0061 | 0.723 ± 0.011 | 0.733 ± 0.0077 |
| RTFPYSALSFVS | 0.457 ± 0.013 | 0.618 ± 0.032 | 0.712 ± 0.013 | 0.652 ± 0.046 | 0.718 ± 0.015 | 0.216 ± 0.022 | 0.235 ± 0.045 | 0.445 ± 0.048 |
| RVFRRFCCVISM | 0.366 ± 0.025 | 0.312 ± 0.034 | 0.342 ± 0.018 | 0.342 ± 0.029 | 0.49 ± 0.045 | 0.437 ± 0.027 | 0.339 ± 0.022 | 0.439 ± 0.015 |
| RVFVGLVDFLFW | 0.471 ± 0.072 | 0.437 ± 0.033 | 0.553 ± 0.073 | 0.402 ± 0.025 | 0.6062 ± 0.0026 | 0.37 ± 0.019 | 0.394 ± 0.033 | 0.57 ± 0.035 |
| RVVITYLVLSNR | 0.547 ± 0.094 | 0.648 ± 0.06 | 0.686 ± 0.013 | 0.509 ± 0.018 | 0.646 ± 0.011 | 0.522 ± 0.039 | 0.505 ± 0.018 | 0.6445 ± 0.0056 |
| RWALPALWAYAA | 0.146 ± 0.094 | 0.493 ± 0.029 | 0.715 ± 0.034 | 0.583 ± 0.025 | 0.7029 ± 0.007 | 0.0884 ± 0.011 | 0.105 ± 0.012 | 0.16 ± 0.05 |
| RWGLFIGIVIGF | 0.337 ± 0.021 | 0.146 ± 0.0085 | 0.211 ± 0.003 | 0.219 ± 0.037 | 0.338 ± 0.0087 | 0.235 ± 0.014 | 0.217 ± 0.024 | 0.317 ± 0.025 |
| RYQDLSDWRRIS | 0.159 ± 0.0075 | 0.412 ± 0.02 | 0.6574 ± 0.0031 | 0.629 ± 0.0036 | 0.753 ± 0.028 | 0.073 ± 0.0096 | 0.0791 ± 0.017 | 0.0794 ± 0.017 |
| RYTWHGICIVTR | 0.4401 ± 0.0033 | 0.43107 ± 0.00014 | 0.456 ± 0.013 | 0.312 ± 0.027 | 0.4805 ± 0.0035 | 0.285 ± 0.0063 | 0.313 ± 0.019 | 0.476 ± 0.0052 |
| SCCLLICIFFIF | 0.297 ± 0.0023 | 0.317 ± 0.045 | 0.408 ± 0.065 | 0.306 ± 0.015 | 0.391 ± 0.064 | 0.227 ± 0.0076 | 0.231 ± 0.029 | 0.33 ± 0.0056 |
| SCLSYRTRLLAF | 0.49 ± 0.0059 | 0.52 ± 0.045 | 0.617 ± 0.011 | 0.477 ± 0.019 | 0.587 ± 0.0083 | 0.406 ± 0.0086 | 0.41 ± 0.014 | 0.504 ± 0.011 |
